Molecular target: LOV construct of Brucella abortus LOV-HK with the Nα helix, the LOV core and half of the Jα helix (wild type) (Brucella abortus)
Assay: SEC with static light scattering (SEC-SLS)

With “LOV construct of Brucella abortus LOV-HK with the Nα helix, the LOV core and half of the Jα helix (wild type) (domain or fragment)” the stoichiometry N was 2.

— publication PMC8092228 (mBio, 2021)
